Measured values reported in publication PMC13323110, “Structure and substrate recognition by the bacterial twin-arginine translocation (Tat) core complex” (Nature Microbiology, 2026).
Values belong to the molecule of their own block, whether it stands above or below them.

Tests used:
[1] = biological target: N. salsuginis TatC (GFP-His removed) (Nitratifractor salsuginis); test: cryo-EM structure; co-expressed TatBC complexes (E. coli, N. salsuginis, M. xanthus) and N. salsuginis TatAC complex, solubilised and purified in GDN
[2] = biological target: the molecule itself; test: as above
[3] = biological target: T1, E. coli TatC with C-terminal Twin-Strep tag, expressed from a tatABC plasmid (Escherichia coli, UniProt P69423 1-258); test: cryo-EM structure; purified E. coli TatABC with an ALFA tag inserted in TatA or TatB, labelled with an anti-ALFA nanobody; 2D class averages and a 6.4 Å map; settings: both partners purified
T1 construct: TatC of Escherichia coli, PCR from E. coli genomic DNA (DSM 1116); also called TatC_(strep); not shown: Twin-Strep, C-terminal, kept
T1 sequence: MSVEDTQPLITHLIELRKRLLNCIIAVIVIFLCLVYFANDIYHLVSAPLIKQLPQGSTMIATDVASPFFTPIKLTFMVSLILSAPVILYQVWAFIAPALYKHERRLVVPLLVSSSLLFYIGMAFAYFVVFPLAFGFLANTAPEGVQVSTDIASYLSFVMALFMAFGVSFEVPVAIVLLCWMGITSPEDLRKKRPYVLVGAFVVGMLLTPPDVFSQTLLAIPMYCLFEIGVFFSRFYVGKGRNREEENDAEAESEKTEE

[4] = biological target: T2, E. coli TatC of the His-tagged TatBC complex (TatBC_(His)6) (Escherichia coli), P69423; test: cryo-EM structure; co-expressed TatBC complexes (E. coli, N. salsuginis, M. xanthus) and N. salsuginis TatAC complex, solubilised and purified in GDN; settings: remark: other sources report otherwise
T2 chain: T1 sequence

[5] = biological target: T1, E. coli TatC with C-terminal Twin-Strep …; test: densitometry of Coomassie-stained SDS-PAGE of purified complexes; purified TatABC (TatA_26(His)6_TatBC) and TatBC (TatBC_(His)6) at four dilutions, bands quantified with ImageJ; settings: both partners purified
[6] = biological target: N. salsuginis TatBC complex (Nitratifractor salsuginis); test: cryo-EM structure; 50 μl N. salsuginis TatBC (A280nm = 8.0) mixed with 50 μl CueO peptide (1 mg/ml), 12 h at 4 °C, in GDN
[7] = biological target: the molecule itself; test: crystal structure; SeMet-labelled isolated periplasmic domain; sitting drop, 21 °C, 0.2 M lithium sulphate, 0.1 M Tris pH 8.5, 10% PEG 8000, 10% PEG 1000
[8] = biological target: the molecule itself; test: cryo-EM structure; complex assembled in vitro: Ulp1-cut His6-SUMO-MdoD or -CueO mixed with purified E. coli TatBC or TatABC complex overnight at 4 °C, SEC in 50 mM Tris pH 8.0, 200 mM NaCl, 1 mM EDTA, 0.02% GDN; excess substrate
[9] = biological target: T3, E. coli TatBC complex purified by a Twin-Strep tag on TatC (sample of the TatBC-MdoD structure) (Escherichia coli, UniProt P69425 1-171; P69423 1-258); test: as above; settings: both partners purified
T3 construct: TatB of Escherichia coli, as m1; TatC of Escherichia coli, as m5; No TatA density was found; source: E. coli, overexpressed TatABC purified solely by the TatC Twin-Strep tag in GDN; only very low levels of TatA in the purified material; copies: 3 + 3
T3 sequence 1: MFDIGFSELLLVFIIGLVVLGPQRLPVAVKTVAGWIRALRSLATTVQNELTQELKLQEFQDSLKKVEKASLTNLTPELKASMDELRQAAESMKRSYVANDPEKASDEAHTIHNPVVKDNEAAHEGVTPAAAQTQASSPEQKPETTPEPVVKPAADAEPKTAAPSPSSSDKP
T3 sequence 2: T1 sequence

stoichiometry N [1]: 3
Molecule: N. salsuginis TatC (GFP-His removed) (natural protein)

B1: M. xanthus TatC (GFP-His removed) (natural protein, Myxococcus xanthus)
chain: MSLADHLTELRSRLMRCTIAVLILGTISLVFAKPIFGLLMQPVLDALPPENRSLIYTSGIEELNVLMKVGVYCGIFLTTPVILMQIWGFVSPGLYPEERRFAAPFVAFGSIAFLLGAAFCYFAVLPSMFTFLLNEEETLALEQRLDTARLRADDALRFLRLGEAEEAGRIAKETSTQLRAEGQGQAPAPEVAPAASVEMTGRLDGLGRLLDAASVGYGAQSRGVLRQAVEKRVEAVTAYEKKDFAAAAAAMDGSASLLAGIAPTRTEELAGLWRLEKELATAHAAHEAARWTRPMLSMHEQLSLVLLLILAFGIIFELPLVMALLGVVGVVKSSWLFRYQRHAFVVCLIAAAIITPTGDVVNLSLMAGPMLLCYELGVLLVWMVERRRARNSAETGITPAS
notes: TatC of Myxococcus xanthus (ATCC 19368), codon-optimised synthetic gene; has a folded periplasmic insert domain
stoichiometry N [2]: 3

stoichiometry N [3]: 1 TatA per core complex
B2: E. coli TatA with an inserted ALFA-His tag (natural protein, Escherichia coli, UniProt P69428 1-89, looked up)
chain: MGGISIWQLLIIAVIVVLLFGTKKLGSIGSDLGASIKGFKKAMSDDEPKQDKTSQDADFTAKTIADKQADTNQEQAKTEDAKRHDKEQV
notes: TatA of Escherichia coli; also called TatA_(ALFA); TatA_(ALFA,His); not shown: ALFA, internal (in the cytoplasmic part of TatA), kept

stoichiometry N [4]: 3
B3: E. coli TatC of the His-tagged TatBC complex (TatBC_(His)6), P69423 1-258 (natural protein)
chain: T1 sequence

ratio of TatB to TatC in the TatABC complex relative to the TatBC complex [5]: 0.78
B4: E. coli TatB (natural protein, Escherichia coli)
chain: T3 sequence 1
notes: TatB of Escherichia coli, PCR from E. coli genomic DNA (DSM 1116); residues 1-63 modelled in the TatBC structure; source: E. coli MC4100 ΔtatABCD ΔtatE, overexpressed from a plasmid with TatC (and TatA), purified in GDN as part of the complex
binding result [2]: binds

stoichiometry N [3]: 2 TatB per core complex
B5: E. coli TatB with an inserted ALFA-His tag (natural protein, Escherichia coli, UniProt P69425 1-171, looked up)
chain: T3 sequence 1
notes: TatB of Escherichia coli; also called TatB_(ALFA)

stoichiometry N (signal peptide per TatB and TatC) [6]: 1
B6: E. coli CueO signal peptide (residues 1-28) (peptide)
peptide: MQRRDFLKYSVALGVASALPLWSRAVFA

B7: M. xanthus TatC periplasmic domain (residues 127-303) (domain or fragment, Myxococcus xanthus, UniProt Q2PHA2 127-303, looked up)
chain: SMFTFLLNEEETLALEQRLDTARLRADDALRFLRLGEAEEAGRIAKETSTQLRAEGQGQAPAPEVAPAASVEMTGRLDGLGRLLDAASVGYGAQSRGVLRQAVEKRVEAVTAYEKKDFAAAAAAMDGSASLLAGIAPTRTEELAGLWRLEKELATAHAAHEAARWTRPMLSMHEQLS
modifications: selenomethionine-labelled
notes: periplasmic domain of TatC of Myxococcus xanthus, residues 127-303; also called M. xanthus insert; source: E. coli B834 (DE3), pET15b, SelenoMethionine media, purified (Ni-NTA, TEV, SEC)
stoichiometry N [7]: 3

stoichiometry N [9]: 3 MdoD per (TatBC)3 complex
B8: E. coli MdoD, full length with its Tat signal peptide (natural protein, Escherichia coli, UniProt P40120 1-551, looked up)
chain: MDRRRFIKGSMAMAAVCGTSGIASLFSQAAFAADSDIADGQTQRFDFSILQSMAHDLAQTAWRGAPRPLPDTLATMTPQAYNSIQYDAEKSLWHNVENRQLDAQFFHMGMGFRRRVRMFSVDPATHLAREIHFRPELFKYNDAGVDTKQLEGQSDLGFAGFRVFKAPELARRDVVSFLGASYFRAVDDTYQYGLSARGLAIDTYTDSKEEFPDFTAFWFDTVKPGATTFTVYALLDSASITGAYKFTIHCEKSQVIMDVENHLYARKDIKQLGIAPMTSMFSCGTNERRMCDTIHPQIHDSDRLSMWRGNGEWICRPLNNPQKLQFNAYTDNNPKGFGLLQLDRDFSHYQDIMGWYNKRPSLWVEPRNKWGKGTIGLMEIPTTGETLDNIVCFWQPEKAVKAGDEFAFQYRLYWSAQPPVHCPLARVMATRTGMGGFSEGWAPGEHYPEKWARRFAVDFVGGDLKAAAPKGIEPVITLSSGEAKQIEILYIEPIDGYRIQFDWYPTSDSTDPVDMRMYLRCQGDAISETWLYQYFPPAPDKRQYVDDRVMS
notes: MdoD of Escherichia coli, precursor with its 32-residue Tat signal peptide; source: E. coli BL21 (DE3) ΔtatABCD ΔtatE, pET28a with N-terminal His6-SUMO, purified (His tag column), cut with Ulp1; not shown: His6, N-terminal, cleaved; SUMO, N-terminal, cleaved
stoichiometry N [8]: 2
